Experimental data from patent US10427126B2, “System and method for longitudinal analysis of peptide synthesis” (Roche Sequencing Solutions, Inc., priority 2015, dated 2019).

Experiments:
streptavidin [1] = target: T1, streptavidin (Streptomyces avidinii, UniProt P22629); test: Cy5-labeled streptavidin binding to control peptide features on a peptide array (fluorescence signal output, FIG. 12)
Excerpt: Whereas the hypothetical data presented in FIGS. 8-11 are for two example peptide arrays, actual signal output data following interrogation of a population of control peptide features can be presented in alternative or additional formats. With reference to FIG. 12, data was collected for a peptide array synthesis operation including twelve total synthesis periods. Control peptide features having the streptavidin binder sequence WTHPQFE (SEQ ID NO:1) were synthesized over three consecutive and uninterrupted synthesis periods (e.g., see FIG. 3) with control peptide features synthesized beginning with each of the first ten synthesis periods. […] The signal output is measured for each of the control peptide features using one or more interrogation and detection techniques as described herein. […]
Control peptide features are analyzed following the completion of a synthesis operation by array deprotection, streptavidin binding, and array scanning. […] Streptavidin fluorescence signal is detected by scanning the array at 2 μm resolution and 15% gain with a 635 nm excitation wavelength using an MS200 microarray scanner.
Box and whisker plots for analysis of control peptide feature data are prepared in a two-part process. First, data is aggregated for a plurality of synthesis operations that were individually determined to pass a quality control assessment. […]

streptavidin [2] = target: T1, streptavidin; details: peptide including the binder sequence; cited from earlier work

T1 sequence (P22629 25-183, species assumed): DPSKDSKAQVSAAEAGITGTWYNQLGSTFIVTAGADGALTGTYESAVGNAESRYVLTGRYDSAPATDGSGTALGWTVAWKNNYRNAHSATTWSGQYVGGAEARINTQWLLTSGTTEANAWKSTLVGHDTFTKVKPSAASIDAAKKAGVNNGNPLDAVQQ

Row | Substance | signal output as percentage of the aggregate data (2^14.3 units) (streptavidin [1]; fourth synthesis operation, synthesis period four) | signal output as percentage of the aggregate data (2^14.3 units) (streptavidin [1]; third synthesis operation) | binding by streptavidin (streptavidin [2])
1 | WTHPQFE | about 5% | about 54% | –
2 | FDEWL | – | – | can be bound by streptavidin
